Reference: paper PMC5124861, “Transition steps in peroxide reduction and a molecular switch for peroxide robustness of prokaryotic peroxiredoxins” (Scientific Reports, 2016)

Target: the molecule itself
Experiment: crystal structure; oxidized EcAhpC_(1-186)-YFSKHN; hanging-drop vapour diffusion, 1.6 M ammonium sulfate, 100 mM MES pH 6.5, 5% dioxane, 4.5 mg/ml protein, 291 K; 2.7 Å; decamer in the asymmetric unit

B1: chimeric EcAhpC_(1-186)-YFSKHN (enzyme, E. coli | human)
chain: MSLINTKIKPFKNQAFKNGEFIEITEKDTEGRWSVFFFYPADFTFVCPTELGDVADHYEELQKLGVDVYAVSTDTHFTHKAWHSSSETIAKIKYAMIGDPTGALTRNFDNMREDEGLADRATFVVDPQGIIQAIEVTAEGIGRDASDLLRKIKAAQYVASHPGEVCPAKWKEGEATLAPSLDLVGKYFSKHN
notes: C-terminal YFSKHN segment (helix with the YF motif) of human Prx2; Decamer (alpha2)5 in the crystal; In the oxidized form an intermolecular disulphide joins C47 and C166' of the two subunits of each dimer; the reduced form came from soaking oxidized crystals in 1 mM TCEP; The forward primer (NcoI, ATG GCA ATG TCC) may add residues before M1; also called chimeric Prx; Ox; copies: 10
- stoichiometry N: 10
